The results in this text go back to article PMC8187409, “The zinc-finger protein Red1 orchestrates MTREC submodules and binds the Mtl1 helicase arch domain” (Nature Communications, 2021).

The target of assay [1] is ZZ-ctRed1_(spep) (residues 1040–1091) (Chaetomium thermophilum). In words: ITC; MicroCal PEAQ-ITC, 25 °C, 20 mM HEPES pH 7.5, 150 mM NaCl; 30 µM ZZ-ctRed1spep in the cell, 250 µM ctMtr4SA in the syringe; duplicate. For orientation: Isothermal titration calorimetry measures the heat released or taken up as one component is titrated into another.
In assay [2] the target is T1, full-length spArs2 (in vitro binding) (S. pombe, UniProt O94326 1-609).
T1 construct: Ars2, S. pombe; source: E. coli (vectors for expression in E. coli)
T1 sequence (looked up): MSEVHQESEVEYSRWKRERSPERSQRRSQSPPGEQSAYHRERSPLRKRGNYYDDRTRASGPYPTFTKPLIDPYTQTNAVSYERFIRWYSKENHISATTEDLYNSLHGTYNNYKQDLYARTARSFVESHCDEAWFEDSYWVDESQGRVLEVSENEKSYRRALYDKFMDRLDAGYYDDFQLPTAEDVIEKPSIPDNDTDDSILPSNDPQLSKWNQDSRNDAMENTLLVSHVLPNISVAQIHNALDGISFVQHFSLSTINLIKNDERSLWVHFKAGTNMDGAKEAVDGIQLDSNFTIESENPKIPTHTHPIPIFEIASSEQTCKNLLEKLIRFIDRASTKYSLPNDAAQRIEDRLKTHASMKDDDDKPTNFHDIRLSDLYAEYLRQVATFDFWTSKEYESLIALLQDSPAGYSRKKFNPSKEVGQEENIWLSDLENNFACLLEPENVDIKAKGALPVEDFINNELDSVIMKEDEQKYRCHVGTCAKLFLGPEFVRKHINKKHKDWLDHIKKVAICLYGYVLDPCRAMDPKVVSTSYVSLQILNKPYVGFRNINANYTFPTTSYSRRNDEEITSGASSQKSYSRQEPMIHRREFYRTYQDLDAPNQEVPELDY
The assay is described as follows: pull-down; GST pull-down: bait with 1.5 molar excess of prey, 20 mM HEPES pH 7.5, 150 mM NaCl (or higher, up to 600 mM or 1.5 M in the washes), 5% glycerol, 0.1% NP-40, 4 °C, glutathione agarose; SDS-PAGE, Coomassie. The settings on record: both partners purified.

As a reminder, the Kd is the constant that tells how readily two partners part at equilibrium. High values mean weaker binding, low ones tighter binding. What is called stoichiometry N is a count of units in the complex or per binding partner. In assay [1], “ctMtr4SA (residues 654–865), purified for ITC (domain or fragment)” displayed a Kd of 115 nM and a stoichiometry N of 1.

B1: GST-tagged spRed1 peptide (SDKEDGEISEDDP) (peptide)
chain: SDKEDGEISEDDP
notes: source: E. coli (vectors for expression in E. coli)
With B1, the binding result in assay [2] is on record as “binds”.
